Assay results taken from article PMC5085265.

Assays:
[1] = target: ^C38/C81/C96M1 (variant lacking the hydrophobic mutations) (UniProt P0ABE7)
[2] = target: ^C38/C81/C96R1 (triple Cys mutant of the cytochrome cb562 variant RIDC1)
[3] = target: ^C38/C81/C96R1 (triple Cys mutant of the cytochrome cb562 variant RIDC1); assay: AUC

^C38/C81/C96M1 (variant lacking the hydrophobic mutations) (from UniProt P0ABE7 23-128)
yield of the tetrameric species [1]: 16%

^C38/C81/C96R1 (triple Cys mutant of the cytochrome cb562 variant RIDC1)
yield of the tetrameric species [2]: 47%
yield of the tetrameric species with 1.5-fold molar excess of Zn2+ [2]: 53%
stoichiometry N [3]: 4
